Assay results published in the DeepSol protein solubility set.

experiment: soluble on expression in E. coli; label from the status in PepcDB or PDB records

Sequence	soluble on expression in E. coli
MGSDKIHHHHHHMHARSLDKKPLDRQASIDSALRTVATEQAGIAALAEALENGLAAPFAQAVDMISKIEGRLIVTGVGKSGHIGSKIAATLASTGTPAFFVHPVEANHGDLGMIAKDDAIIAISWSGESKEMLGIVAYSRRFSIPLIAVTSGETSALARAADVVLLLPRTPEACPHGLAPTTSTLLQLVIGDALAIALLEARGFTPDHFRTFHPGGQLGANLTMVSEIMRVGDQMPLAVLGTKMPEAVMTLSQKKVGCVLIVDANGELAGIITDGDVARNLHRNLADVIVDEVMTRTPKTVDPQTLAGTAIALLNEHNIGALVVTRNNMPLGVVHFHDLLRIGAA	not soluble
MGSDKIHHHHHHMHCGIDYGTSNSSLGIVKDGKVVQAELERNSVYLPSAIYRAFPEHELNDDIASRSIRQQLGSAQGLLYGSEAIEAYVRHPGDGLFMKSPKVFLGSDLSKDQMDFFQIVIAKMMTHILERAREFYGQELRQAVIGRPIRYHGIRGEEGDKQALAIMEHAAAGAGLEEVVFMYEPLAAALDYEQCLDRDEVLLVVDVGGGTTDCSVVKVGPSYRDKRERSDDLLAYSGNRIGGVDLDINLGWHTIMPLFGRGTDELHNKAFDAITVNSIPSQQAFYSRFEMPVHAQADTVRERLYRVWLDKLSSHLVRSAELAKIELSRRTSHVLELGYVEDGLEVHVSREDFRQAIARSAEKIRQVIDDARQASASRPDKIYLTGGSAVSPVIQQVIREVVGDAVPFVSGNMHGSVACGLSVFANRHFA	not soluble
MGSDKIHHHHHHMHFDIKDLKLFLAISEEGSITRGAEKTYMSAASGSVRIRNLEQSINLRLLYRSSKGITLSSAGETFKHHASLIVNQMEMLRSDMQEHVKGIKGHVRIFSSITAIAEYLPPLLSHFLTLYNDVNIDLREYPSPEIVRSVIEGKTDLGIVAGNITTDNLEILPFRTDRLVLITATDHPFADRKSVTFHELIQYEQISLPEGTGMFEFIRKKAELVPSKLKIRIQVGNFETFCRMVEAKVGIGIMPHSAASRLRQLHEFSIIDLDEFWSLRKLQICARSFDKLPGFTQKLVTMLTAQTE	not soluble
MGSDKIHHHHHHMHIRKYDHDYSRRFFMEQAAKGIATAGVLGPLWPMIANSADITKAYPDELMSIDAWSKGKIKTGDFITAENVEIVKELLDPVAYHHIKTMGRKIRIVPTTRDITRMFPAEYLEATLRNQGKAKLDANSNVVSSDGKPWIGGNPFPDAKTGLEVAANLTMCWGRKDNSLTAIRDWEVAPDGSMSYQYDFAWVEQNTTARADGKVLPGGDELLRYNAVYFTGPSDVKGTSYLNTWYYDQRKFPELVGYLPAFKRVRKFPTNQRFEPLVPGMNLYLSDAWAAGDPMLTWGNYKIVGRGPMLGAQSQTWYGDRPNWERPVQGGPKNQTFFETQMELCPDVVIFEAEPTGYPRAPVGKKRVWVDVRNQMYVAYITYDRRGEIFKSFEPQYSFLEKGDKKLMDGKSTAWHWTAVQCYNFQDGRMTRFQPVTSIAGGMSTAFNIDGLYEKYMTQQALQRMGT	not soluble
MGSDKIHHHHHHMHLAAEQMNLSQPAVSKMLKEIEGLLGFQVFERLPRNMPVTALGEHVIRYAQRVLNDAKHFVEDIEILRLGGHGFLKVGGIFAATAVVIPNSIIEIKKQWPLLSIDVVEQTSDHLMEMLSEHTLDLAIGRFTDVTQSQFFDFQPLGPEPFCIVVNNAHPCAQKKFCTLEELLKWPWVLYPKGTPIRERMEGAFARAKVKIPLNTVNTMSMQTFLQILKGAPMVGMLPEAMVIDQVKEGQLQILETDLILDAQDYGILTRKDEPVSDIAAAFINILLKNAKRK	not soluble
MGSDKIHHHHHHMHLDLLICSKPFIFNKVVDTKPFYQRTIMYKHTVSQHVFTFDSLTELMAKASPLRSGDQLAGIAAGSYQERIAAQMALADLPLTTFLQEPLIPYESDEVTRLIFDTHEHTAFTAIAHLTVGDFRNFLLSNNTHTSQLTALQKAITPEMAAAVSKIMNVQDLILVSSKCEIITRFRNTIGVKGCMSTRLQPNHPTDDLKAIMASVLDGLFYGSGDAVIGINPATDHISTQVQLLKLIDAVREQYAIPTQSCILSHITNTILAIEQGAPVDLVFQSIGGTEKTNSSFGINLSLLQEGYEAALSLGRGTIGNNVMYFETGQGSSLSANAHYGIDQQTLEARAYAVARAFNPLLVNTVVGFIGPEYLFDGKQIIRAGLEDHFCGKLMGLPMGCDICYTNHADADQDDMDALLTLLGVAGCNFIMGVPGSDDIMLNYQSTSFHDALYIRKLLNVKPAPEFEEWLLKMGIMNTQHEITVHRIYCG	not soluble
MGSDKIHHHHHHMHQFLRAIGFSDITKKQLNEVINNIIDKPEKLKVTKDFEGNEFAELSCDVAPNMGITVRGIYNDDDSFDIDYYYPYFTGSEKTTNEIIDIEKHSEKESYAGVCDDPNLGVTLIFYLQNVCDYLSEKAYINREVRAKGAVLSGLSVDGCILLPMKQKKAKTLNTVDSDKKDRKQLIAEARDGDESAMESLTMEDIDLYSSITRRIQNEDILSIVTTYFMPYGIESDQYSVLGDIIELTEEKNIITNEKIYCIKVSCNDIIFSVCINKNDLIGEPMVGRRFKGNIWMQGSICL	not soluble
MGSDKIHHHHHHMHTELNHVMPWRIEDIDLTRIDRQKAVANEDLLLLLCASSFIESGSDLYTANLSTFFNGDPEVSAWLNQEWEPEELQHGRALKTYIAYVWPEFDWDTAFRNFMEEYSLTCSVEDFEKTRALEMVARCVVETGTATLYRAIGECSDEPVLKQITDNIRTDEVRHYKHFFKYFKKYNKIEGNGRLAVLGALMRRVMEIKNEDSEIALRHVFAVRYPERVHDSAYNRERAARINALVRRNLSADMCVKMLLKPLDLPARIQPGVHYPLAKITQHVFFR	not soluble
MGSDKIHHHHHHMHVEDYMNETPACLLAMLTQTREDLWQAAKALTERGVTRIILTGSGTSYHGALTARSFMQQWCGLPVDVYWPFLLDDSALTLSDKALVIGISQGGGSLSTLAAMERARAAGHLTASMAGEAPAVIDRAADLVLTVPCGEERAGAKTKGYHCTILNLMLLGLAVASRQRRLSDEERKALLIRMDTTFNHLPTLIEASQAWVLNHARPLIDSADIRLTGPARLFGTVQEGALKMLETLRCPVAGYEFEEFIHGIYNAFDERSTLIMLDPFPDERQDRLAEILGGWTQHIYRIGPQVENNGKNMPFAFINDPDFAVFEYIIPLQMVCARLPPVKGIDPAIPKDPQFHQKMKSKQLN	not soluble
MGSDKIHHHHHHMICEFSESVLDGIADALVDRGYICVDNLFEPEVVVRLRDKVFTKADETFKPASIGRGQEQHRNTDIRRDSIRWLEPQCAVDNQYLSLMESLKNGLNRRLFMGLFDYESHYALYRPGAFYKKHVDALKGSQNRILTTVFFMNPEWQPDHGGVLKLYEEDDSLIEELAPLMGRLVIFLSERFPHEVMPTTVDRASIAGWFRVAGSQHGF	not soluble
MGSDKIHHHHHHMIDEHHIDALTKLLGDKGVVTRREDMEAYEAGARYDRGRAAAVLRPVTTEEVSAAVGYCVRSGIALIPQSGNTGLVSGSTPDESGSEVVVSLDRLTRQFALDLDNRSVRVDAGFRLSELNRRLEEHGLFFPIDLGADPRIGGMIATNTGGSRFLKYGDVRRNTLGLKVVLADEAGTVLDLGSDLRKNNTGVDWKQIFIGTSGAFGIVTECVLNLERLPKQTATAFLVPASGAHVLPLLKAMEERLGAYLSAFEGMSRNAIAAAFAHVPALKNPFQGGKVPDYVILAEISRTSSPREGEQPLDAVLESVLAEIWEMEEVLLADALVGPPHEIWALRHALSEGVKHLGKLIAFDLSFRRGDIMAFCDHMKTEMPEKFPGVTVCDFGHIGDGGVHFNLVVAKDSPLLADATFEQRLREWVFAVAVEQYHGSFSAEHALGRRNQAFYDLYTPEKLKNMAAGLKTLTSPGKLGSVRFG	not soluble
MGSDKIHHHHHHMIDFIYSFQNMEQINSSSWHLPTQYFLNRNNKMEATNTHDIQGLSARKTVEAYLAAFAEGKLDDIVSLLDDNVVWHIDGEPGVSTVGLLQGPGRVRRWLQNFPQNFRPLDFSISDIIAHNDSVLVLGRFRHTVLSTGNAVGSDMIIHFKVSGSKITRYQMFEDSALLSRAFDASDEWQLQQVRINGTLYRYRDIGEGPTLIFAHGLFANHEIFSAQFQILSKSYRCIVLDMPGHGLSEYDPAGWKLDDLSRDLALMIQELSLGKVTFIGQSQGGMVAIRLAAHYPQLVSGLVLIGTSARAEFPERLQNWHRQRDILLTGSEHAREDLFKKIQSHINNEAWLQNNQGEAARERRIMLSHNRTGLALALDAAVFERGDITELLADISAPTLIICGEQDTATPVELSQEIATLIADASILILAKTGHHPPTEAAQAVTAAIAEFLKLECSNHH	not soluble
MGSDKIHHHHHHMIEYRIEEAVAKYREFYEFKPVRESAGIEDVKSAIEHTNLKPFATPDDIKKLCLEARENRFHGVCVNPCYVKLAREELEGTDVKVVTVVGFPLGANETRTKAHEAIFAVESGADEIDMVINVGMLKAKEWEYVYEDIRSVVESVKGKVVKVIIETCYLDTEEKIAACVISKLAGAHFVKTSTGFGTGGATAEDVHLMKWIVGDEMGVKASGGIRTFEDAVKMIMYGADRIGTSSGVKIVQGGEERYGG	soluble
MGSDKIHHHHHHMIGICCLFIVTSCQNREPQGASIQGKDFAQSTEKSVIMVMIDSMTADLLDAAKEEGIIPGLSFLMENGTYFDELIAPFPSMSVVIESTLITGSLPDEHKVPGLVWYHAEEDRLVDYGSTPETYMKLGLNRVLFDDLSNLNNRHLSKDVPTIHEILQDSQMSTGSVNALVYRGNTSHKVNLPEPFDTWMQGQPFETKGPDLLSFGTIIEPKVIQAKELDDDHFLDLYGLNDSYGTAVVRTLIEKNEQPQFLFLFMPDFDQATHDHGQLNLEDFEKVDHAFQDILNSYDSWEQALEENIFIVIGDHGQSQIASTASDAIIPLPTLYEEYEIASLMDAPSDGEIVIANNHRMVYVYSFQPAHSFDTLANEALEDLRIQFAAYLEDDELVIKAPEHKEPLKVKKGGSWIDPYGQTWTIEGNEQIGDVFFDHDCKRIMYGENPDLFNQLFHALDSHTSTLVLTAKPGYIFESEGAPAHIGGGEHGGIHEEDTKAAMIIAGTDKAPAHLRMVDLKDFIIRLMTEEN	not soluble
MGSDKIHHHHHHMIHTLYRYCIAFTVVFLSACSVTPRQDASESQAGASAAATLASWNDTRTKRSIVDFVTLVTTPESRDFIPSADRIAVFDNDGTLWPEQPVRVQLVFALQRVKTVAGRHPEWKRQEPFRSILKGNLRSVAASGDAGSLRVLAAAHVGMTSEQFAALAHEWFDSASDPRFNRLYADLAYQPMLELLAYLRANGFKTYLVTGGDVEFVREVAQRMYGIPPEQVIGSTVRYRYSQTNDAISLTRLAQVDTLVDGAAKPLAIDRVIGRRPVIAFGNADGDAPMLEWTSAGDGPRLAALVHHTDAEREYQYDHASQSGKLDKGLDEAAVKGWLIVDMKDDWKTVFKPANTTAPGATGATGATVK	not soluble
MGSDKIHHHHHHMIIKNRFTDEIEDAYLDYGSPPPEWQTVQNAAESLRSMPTDQLQSSAKSVFDYIRQNMDAILPRISRTTGKPMRYLRLEVDRSLSETGKIVVMDEPMFHDIPQYSVVYPNYQDPVSSLIVPSIFFLLNRVPVIVVPDRYAFLVPSLIYKAFASSGLPSGSFSISNGGIPEGFPSTRYAVSYSTDAMPEAAPGSGTLHADRGGPSMAVVWKDADVDFAAQNLVDSVIERHSIFLRSIVVHDEIFEYFVNRLKDLLPSIVAGDPEDLSTQLGPCASDIDLIRSLNMIAEARRARSIIYSKGPQGNIITPTIINGEITDMDDMVYTPVYILHHASSMEEVFELVSKVGPEALALYSSDSMLFRMVLSRTSAKYIGLNSYPEISYKPPISIPRRGLYL	not soluble
